# Source: US20140080757A1 (ZEALAND PHARMA A S, published 2014)
# Numbered stars: 1 amine (or outer) side, 2 acyl side, 3 side chain; on linkers, the order of the positions; unused ones are H or OH. Square brackets hold non-standard residues; d marks the D form. Side chains are listed from the residue outwards. * marks the point of attachment. γGlu = O=C(O)[C@H](CCC(=O)[*:2])N[*:1]; Palmitoyl = CCCCCCCCCCCCCCCC(=O)*; Aib = CC(C)(N)C(=O)O
# T1: endogenous GLP-1 receptor of a murine insulinoma cell line (murine, UniProt O35659 22-463)
# T1 sequence (looked up): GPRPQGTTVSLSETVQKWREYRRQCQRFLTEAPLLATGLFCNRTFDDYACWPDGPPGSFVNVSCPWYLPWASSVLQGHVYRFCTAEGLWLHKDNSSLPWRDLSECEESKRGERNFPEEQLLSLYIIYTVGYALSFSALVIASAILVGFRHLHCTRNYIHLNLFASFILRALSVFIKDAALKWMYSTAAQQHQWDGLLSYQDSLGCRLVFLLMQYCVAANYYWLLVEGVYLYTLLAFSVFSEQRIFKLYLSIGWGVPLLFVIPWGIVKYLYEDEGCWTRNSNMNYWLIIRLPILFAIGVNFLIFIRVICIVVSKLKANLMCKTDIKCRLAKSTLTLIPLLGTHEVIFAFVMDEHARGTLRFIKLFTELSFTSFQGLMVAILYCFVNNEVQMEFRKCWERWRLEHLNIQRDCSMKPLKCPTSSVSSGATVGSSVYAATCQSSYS
# B1: Compound 16 (peptide)
# peptide: H-H[Aib]QGTFTSDYSKYLDSK([γGlu-Palmitoyl])AAEDFVEWLESA-NH2
# SMILES: CCCCCCCCCCCCCCCC(=O)N[C@@H](CCC(=O)NCCCC[C@H](NC(=O)[C@H](CO)NC(=O)[C@H](CC(=O)O)NC(=O)[C@H](CC(C)C)NC(=O)[C@H](Cc1ccc(O)cc1)NC(=O)[C@H](CCCCN)NC(=O)[C@H](CO)NC(=O)[C@H](Cc1ccc(O)cc1)NC(=O)[C@H](CC(=O)O)NC(=O)[C@H](CO)NC(=O)[C@@H](NC(=O)[C@H](Cc1ccccc1)NC(=O)[C@@H](NC(=O)CNC(=O)[C@H](CCC(N)=O)NC(=O)C(C)(C)NC(=O)[C@@H](N)Cc1c[nH]cn1)[C@@H](C)O)[C@@H](C)O)C(=O)N[C@@H](C)C(=O)N[C@@H](C)C(=O)N[C@@H](CCC(=O)O)C(=O)N[C@@H](CC(=O)O)C(=O)N[C@@H](Cc1ccccc1)C(=O)N[C@H](C(=O)N[C@@H](CCC(=O)O)C(=O)N[C@@H](Cc1c[nH]c2ccccc12)C(=O)N[C@@H](CC(C)C)C(=O)N[C@@H](CCC(=O)O)C(=O)N[C@@H](CO)C(=O)N[C@@H](C)C(N)=O)C(C)C)C(=O)O
# B2: Compound 22 (peptide)
# peptide: H-HSQGTFTSDYSKYLEEK([γGlu-Palmitoyl])AAKDFIEWLESA-NH2
# SMILES: CCCCCCCCCCCCCCCC(=O)N[C@@H](CCC(=O)NCCCC[C@H](NC(=O)[C@H](CCC(=O)O)NC(=O)[C@H](CCC(=O)O)NC(=O)[C@H](CC(C)C)NC(=O)[C@H](Cc1ccc(O)cc1)NC(=O)[C@H](CCCCN)NC(=O)[C@H](CO)NC(=O)[C@H](Cc1ccc(O)cc1)NC(=O)[C@H](CC(=O)O)NC(=O)[C@H](CO)NC(=O)[C@@H](NC(=O)[C@H](Cc1ccccc1)NC(=O)[C@@H](NC(=O)CNC(=O)[C@H](CCC(N)=O)NC(=O)[C@H](CO)NC(=O)[C@@H](N)Cc1c[nH]cn1)[C@@H](C)O)[C@@H](C)O)C(=O)N[C@@H](C)C(=O)N[C@@H](C)C(=O)N[C@@H](CCCCN)C(=O)N[C@@H](CC(=O)O)C(=O)N[C@@H](Cc1ccccc1)C(=O)N[C@H](C(=O)N[C@@H](CCC(=O)O)C(=O)N[C@@H](Cc1c[nH]c2ccccc12)C(=O)N[C@@H](CC(C)C)C(=O)N[C@@H](CCC(=O)O)C(=O)N[C@@H](CO)C(=O)N[C@@H](C)C(N)=O)[C@@H](C)CC)C(=O)O
# B3: Compound 17 (peptide)
# peptide: H-H[Aib]HGTFTSDYSKYLESK([γGlu-Palmitoyl])AAEEFIEWLESA-OH
# SMILES: CCCCCCCCCCCCCCCC(=O)N[C@@H](CCC(=O)NCCCC[C@H](NC(=O)[C@H](CO)NC(=O)[C@H](CCC(=O)O)NC(=O)[C@H](CC(C)C)NC(=O)[C@H](Cc1ccc(O)cc1)NC(=O)[C@H](CCCCN)NC(=O)[C@H](CO)NC(=O)[C@H](Cc1ccc(O)cc1)NC(=O)[C@H](CC(=O)O)NC(=O)[C@H](CO)NC(=O)[C@@H](NC(=O)[C@H](Cc1ccccc1)NC(=O)[C@@H](NC(=O)CNC(=O)[C@H](Cc1c[nH]cn1)NC(=O)C(C)(C)NC(=O)[C@@H](N)Cc1c[nH]cn1)[C@@H](C)O)[C@@H](C)O)C(=O)N[C@@H](C)C(=O)N[C@@H](C)C(=O)N[C@@H](CCC(=O)O)C(=O)N[C@@H](CCC(=O)O)C(=O)N[C@@H](Cc1ccccc1)C(=O)N[C@H](C(=O)N[C@@H](CCC(=O)O)C(=O)N[C@@H](Cc1c[nH]c2ccccc12)C(=O)N[C@@H](CC(C)C)C(=O)N[C@@H](CCC(=O)O)C(=O)N[C@@H](CO)C(=O)N[C@@H](C)C(=O)O)[C@@H](C)CC)C(=O)O
# B4: Compound 19 (peptide)
# peptide: H-H[Aib]HGTFTSDYSKYLEEK([γGlu-Palmitoyl])AAHEFVEWLESA-NH2
# SMILES: CCCCCCCCCCCCCCCC(=O)N[C@@H](CCC(=O)NCCCC[C@H](NC(=O)[C@H](CCC(=O)O)NC(=O)[C@H](CCC(=O)O)NC(=O)[C@H](CC(C)C)NC(=O)[C@H](Cc1ccc(O)cc1)NC(=O)[C@H](CCCCN)NC(=O)[C@H](CO)NC(=O)[C@H](Cc1ccc(O)cc1)NC(=O)[C@H](CC(=O)O)NC(=O)[C@H](CO)NC(=O)[C@@H](NC(=O)[C@H](Cc1ccccc1)NC(=O)[C@@H](NC(=O)CNC(=O)[C@H](Cc1c[nH]cn1)NC(=O)C(C)(C)NC(=O)[C@@H](N)Cc1c[nH]cn1)[C@@H](C)O)[C@@H](C)O)C(=O)N[C@@H](C)C(=O)N[C@@H](C)C(=O)N[C@@H](Cc1c[nH]cn1)C(=O)N[C@@H](CCC(=O)O)C(=O)N[C@@H](Cc1ccccc1)C(=O)N[C@H](C(=O)N[C@@H](CCC(=O)O)C(=O)N[C@@H](Cc1c[nH]c2ccccc12)C(=O)N[C@@H](CC(C)C)C(=O)N[C@@H](CCC(=O)O)C(=O)N[C@@H](CO)C(=O)N[C@@H](C)C(N)=O)C(C)C)C(=O)O
# B5: Compound 20 (peptide)
# peptide: HXQGTFTSDYSKYLEEXAAKDFIEWLESA
# modifications: Aib at position 2; Lys 17 K(Hexadecanoyl-isoGlu); C-terminal amide (-NH2)
# B6: Compound 18 (peptide)
# peptide: H-HSHGTFTSDYSKYLEEK([γGlu-Palmitoyl])AAHEFIEWLESA-OH
# SMILES: CCCCCCCCCCCCCCCC(=O)N[C@@H](CCC(=O)NCCCC[C@H](NC(=O)[C@H](CCC(=O)O)NC(=O)[C@H](CCC(=O)O)NC(=O)[C@H](CC(C)C)NC(=O)[C@H](Cc1ccc(O)cc1)NC(=O)[C@H](CCCCN)NC(=O)[C@H](CO)NC(=O)[C@H](Cc1ccc(O)cc1)NC(=O)[C@H](CC(=O)O)NC(=O)[C@H](CO)NC(=O)[C@@H](NC(=O)[C@H](Cc1ccccc1)NC(=O)[C@@H](NC(=O)CNC(=O)[C@H](Cc1c[nH]cn1)NC(=O)[C@H](CO)NC(=O)[C@@H](N)Cc1c[nH]cn1)[C@@H](C)O)[C@@H](C)O)C(=O)N[C@@H](C)C(=O)N[C@@H](C)C(=O)N[C@@H](Cc1c[nH]cn1)C(=O)N[C@@H](CCC(=O)O)C(=O)N[C@@H](Cc1ccccc1)C(=O)N[C@H](C(=O)N[C@@H](CCC(=O)O)C(=O)N[C@@H](Cc1c[nH]c2ccccc12)C(=O)N[C@@H](CC(C)C)C(=O)N[C@@H](CCC(=O)O)C(=O)N[C@@H](CO)C(=O)N[C@@H](C)C(=O)O)[C@@H](C)CC)C(=O)O
# B7: Compound 21 (peptide)
# peptide: H-H[Aib]QGTFTSDYSKYLESK([γGlu-Palmitoyl])AAEDFIEWLESA-NH2
# SMILES: CCCCCCCCCCCCCCCC(=O)N[C@@H](CCC(=O)NCCCC[C@H](NC(=O)[C@H](CO)NC(=O)[C@H](CCC(=O)O)NC(=O)[C@H](CC(C)C)NC(=O)[C@H](Cc1ccc(O)cc1)NC(=O)[C@H](CCCCN)NC(=O)[C@H](CO)NC(=O)[C@H](Cc1ccc(O)cc1)NC(=O)[C@H](CC(=O)O)NC(=O)[C@H](CO)NC(=O)[C@@H](NC(=O)[C@H](Cc1ccccc1)NC(=O)[C@@H](NC(=O)CNC(=O)[C@H](CCC(N)=O)NC(=O)C(C)(C)NC(=O)[C@@H](N)Cc1c[nH]cn1)[C@@H](C)O)[C@@H](C)O)C(=O)N[C@@H](C)C(=O)N[C@@H](C)C(=O)N[C@@H](CCC(=O)O)C(=O)N[C@@H](CC(=O)O)C(=O)N[C@@H](Cc1ccccc1)C(=O)N[C@H](C(=O)N[C@@H](CCC(=O)O)C(=O)N[C@@H](Cc1c[nH]c2ccccc12)C(=O)N[C@@H](CC(C)C)C(=O)N[C@@H](CCC(=O)O)C(=O)N[C@@H](CO)C(=O)N[C@@H](C)C(N)=O)[C@@H](C)CC)C(=O)O
# B8: Compound 25 (peptide)
# peptide: HXQGTFTSDYSKYLDEXAAKDFIEWLESA
# modifications: D-Ser at position 2; Lys 17 K(Hexadecanoyl-isoGlu); C-terminal amide (-NH2)
# Molecular target: T2, human glucagon-like peptide 1 receptor (GLP-1R) (human, UniProt P43220 24-463)
# Test: cell-based or functional assay
Binder,EC50 hGLP-1R CHO-K1 [nM] (cAMP),Ratio GLP-1/Glucagon (EC50 hGLP-1R / EC50 hGCGR) [ratio]
B1,0.2,0.13

# Molecular target: T3, human glucagon receptor (Glucagon-R) (human, UniProt P47871 26-477)
# T3 sequence (P47871 26-477): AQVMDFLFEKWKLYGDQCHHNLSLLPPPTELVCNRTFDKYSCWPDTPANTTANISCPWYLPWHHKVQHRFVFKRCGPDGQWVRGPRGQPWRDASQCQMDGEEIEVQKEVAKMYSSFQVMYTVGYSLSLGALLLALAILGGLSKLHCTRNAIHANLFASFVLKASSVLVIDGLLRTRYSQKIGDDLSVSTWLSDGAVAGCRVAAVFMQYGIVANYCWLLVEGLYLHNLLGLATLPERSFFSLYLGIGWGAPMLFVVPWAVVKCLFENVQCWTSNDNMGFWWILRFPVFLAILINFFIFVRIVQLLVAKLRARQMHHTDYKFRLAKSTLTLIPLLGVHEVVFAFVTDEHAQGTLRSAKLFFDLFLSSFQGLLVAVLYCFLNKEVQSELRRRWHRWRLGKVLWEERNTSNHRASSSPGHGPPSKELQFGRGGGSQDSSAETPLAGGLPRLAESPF
# Test: cell-based or functional assay
row,Binder,EC50 hGCGR CHO-K1 [nM] (cAMP)
1,B1,1.58

# Molecular target: T2, human glucagon-like peptide 1 receptor …
# Test: cell-based or functional assay
# Remark: another data set of the same source
Binder,EC50 hGLP-1R CHO-K1 [nM] (cAMP),Ratio GLP-1/Glucagon (EC50 hGLP-1R / EC50 hGCGR) [ratio]
B2,0.24,2.4
B3,0.23,4.6
B4,0.27,3.38
B5,0.23,0.34
B6,0.87,6.2
B7,0.12,0.09
B8,0.31,1.94

# Molecular target: T3, human glucagon receptor (Glucagon-R)
# Test: cell-based or functional assay
# Remark: another data set of the same source
row,Binder,EC50 hGCGR CHO-K1 [nM] (cAMP)
1,B2,0.1
2,B3,0.05
3,B4,0.08
4,B5,0.68
5,B6,0.14
6,B7,1.32
7,B8,0.16

# Molecular target: T1, endogenous GLP-1 receptor of a murine …
# Test: cell-based or functional assay
row,Binder,EC50 GLP-1R (murine insulinoma cells) [nM] (cAMP)
1,B2,0.35
2,B3,0.89
3,B4,0.33
4,B5,0.27
5,B6,0.99
6,B1,0.33
7,B7,0.3
8,B8,0.41

# Molecular target: endogenous glucagon receptor of primary rat hepatocytes (rat, UniProt P30082 27-485)
# Sequence (P30082 27-485): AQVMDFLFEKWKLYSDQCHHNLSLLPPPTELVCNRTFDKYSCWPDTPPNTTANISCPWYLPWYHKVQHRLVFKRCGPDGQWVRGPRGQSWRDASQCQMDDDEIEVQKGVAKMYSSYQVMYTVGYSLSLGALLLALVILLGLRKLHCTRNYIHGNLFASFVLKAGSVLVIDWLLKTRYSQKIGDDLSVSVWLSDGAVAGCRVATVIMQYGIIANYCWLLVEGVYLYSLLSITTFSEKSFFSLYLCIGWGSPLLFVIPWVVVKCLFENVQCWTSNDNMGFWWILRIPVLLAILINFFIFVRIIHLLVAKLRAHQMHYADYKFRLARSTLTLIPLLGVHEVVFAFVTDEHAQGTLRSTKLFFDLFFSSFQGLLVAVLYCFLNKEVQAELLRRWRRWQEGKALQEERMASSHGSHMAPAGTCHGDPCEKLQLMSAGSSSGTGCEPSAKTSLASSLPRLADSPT
# Test: cell-based or functional assay
row,Binder,EC50 GLP-1R Rat hepat. [nM] (inhibition of glycogen synthesis)
1,B2,0.28
2,B3,0.18
3,B4,0.06
4,B5,0.39
5,B6,0.18
6,B1,1.85
7,B7,3.4
8,B8,0.15
